According to IntAct's records for PubMed 31515488:

B1: Cysteine-rich secretory protein 2 (Homo sapiens), P16562 (parent)
chain: MALLPVLFLVTVLLPSLPAEGKDPAFTALLTTQLQVQREIVNKHNELRKAVSPPASNMLKMEWSREVTTNAQRWANKCTLQHSDPEDRKTSTRCGENLYMSSDPTSWSSAIQSWYDEILDFVYGVGPKSPNAVVGHYTQLVWYSTYQVGCGIAYCPNQDSLKYYYVCQYCPAGNNMNRKNTPYQQGTPCAGCPDDCDKGLCTNSCQYQDLLSNCDSLKNTAGCEHELLKEKCKATCLCENKIY
partner: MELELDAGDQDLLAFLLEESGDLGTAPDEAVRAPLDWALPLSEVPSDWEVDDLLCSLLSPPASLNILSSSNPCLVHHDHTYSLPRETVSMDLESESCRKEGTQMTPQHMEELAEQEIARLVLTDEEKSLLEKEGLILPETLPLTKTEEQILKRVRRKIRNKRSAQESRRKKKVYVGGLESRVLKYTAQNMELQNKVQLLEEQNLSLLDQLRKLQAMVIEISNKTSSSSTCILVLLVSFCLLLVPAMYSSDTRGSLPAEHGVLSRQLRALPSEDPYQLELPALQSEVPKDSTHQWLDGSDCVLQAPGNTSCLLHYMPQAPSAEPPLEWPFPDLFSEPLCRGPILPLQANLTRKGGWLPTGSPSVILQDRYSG
B2: Cell growth regulator with RING finger domain protein 1 (Homo sapiens), Q99675 (parent)
chain: MAAVFLVTLYEYSPLFYIAVVFTCFIVTTGLVLGWFGWDVPVILRNSEETQFSTRVFKKQMRQVKNPFGLEITNPSSASITTGITLTTDCLEDSLLTCYWGCSVQKLYEALQKHVYCFRISTPQALEDALYSEYLYQEQYFIKKDSKEEIYCQLPRDTKIEDFGTVPRSRYPLVALLTLADEDDREIYDIISMVSVIHIPDRTYKLSCRILYQYLLLAQGQFHDLKQLFMSANNNFTPSNNSSSEEKNTDRSLLEKVGLSESEVEPSEENSKDCVVCQNGTVNWVLLPCRHTCLCDGCVKYFQQCPMCRQFVQESFALCSQKEQDKDKPKTL
partner: B1 partner
B3: Coiled-coil domain-containing protein 33 (Homo sapiens), Q8N5R6-5 (parent)
chain: MGEPGPPSPPAPKAAPGLIDSFSEMNNYRRAMQKMAEDILSLRRQASILEGENRILRSRLAQQEEEEGQGKASEAQNTVSMKQKLLLSELDMKKLRDRVQHLQNELIRKNDREKELLLLYQAQQPQAALLKQYQGKLQKMKALEETVRHQEKVIEKMERVLEDRLQDRSKPPPLNRQQGKPYTGFPMLSASGLPLGSMGENLPVELYSVLLAENAKLRTELDKNRHQQAPIILQQQALPVDPGELGAGGDLTERLQETHGPGHSECTETLPAQDLLSGTSDKFNLLAKLEHAQSRILSLESQLEDSARRWGREKQDLATRLQEQEKGFRHPSNSIIIEQPVSDPPGVAPRGSGGGAGSHRTPKVTGP
partner: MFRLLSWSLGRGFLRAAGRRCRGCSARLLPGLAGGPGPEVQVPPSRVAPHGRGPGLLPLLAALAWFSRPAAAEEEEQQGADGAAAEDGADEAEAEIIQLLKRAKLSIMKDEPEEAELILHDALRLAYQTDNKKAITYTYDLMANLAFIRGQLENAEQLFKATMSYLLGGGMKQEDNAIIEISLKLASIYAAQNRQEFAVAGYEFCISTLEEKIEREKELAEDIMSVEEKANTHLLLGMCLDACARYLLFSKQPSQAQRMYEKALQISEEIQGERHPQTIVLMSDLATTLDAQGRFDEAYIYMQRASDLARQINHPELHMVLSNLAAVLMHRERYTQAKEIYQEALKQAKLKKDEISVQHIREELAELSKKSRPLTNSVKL
B4: E3 ubiquitin-protein ligase DZIP3 (Homo sapiens), Q86Y13 (parent)
chain: MDSLPDEFFVRHPAVEDQRKEETENKLEKSSGQLNKQENDIPTDLVPVNLLLEVKKLLNAINTLPKGVVPHIKKFLQEDFSFQTMQREVAANSQNGEEIVPALTLRFLITQLEAALRNIQAGNYTAHQINIGYYLTLLFLYGVALTERGKKEDYTEAENKFLVMKMMIQENEICENFMSLVYFGRGLLRCAQKRYNGGLLEFHKSLQEIGDKNDHWFDIDPTEDEDLPTTFKDLLNNFIKTTESNIMKQTICSYLDCERSCEADILKNTSYKGFFQLMCSKSCCVYFHKICWKKFKNLKYPGENDQSFSGKKCLKEGCTGDMVRMLQCDVPGIVKILFEVVRKDEYITIENLGASYRKLISLKITDTDIRPKISLKFNTKDEMPIFKLDYNYFYHLLHIIIISGTDIVRQIFDEAMPPPLLKKELLIHKNVLESYYNHLWTNHPLGGSWHLLYPPNKELPQSKQFDLCLLLALIKHLNVFPAPKKGWNMEPPSSDISKSADILRLCKYRDILLSEILMNGLTESQFNSIWKKVSDILLRLGMMQEDIDKVKENPIENISLDYHQLSVYLGIPVPEIIQRMLSCYQQGIALQSITGSQRIEIEELQNEEEELSPPLMEYNINVKSHPEIQFAEINKDGTSIPSESSTESLKDLQEVKSKQRKKKKTKNKKNKDSKEDQVPYVVEKEEQLRKEQANPHSVSRLIKDDASDVQEDSAMEDKFYSLDELHILDMIEQGSAGKVTTDYGETEKERLARQRQLYKLHYQCEDFKRQLRTVTFRWQENQMQIKKKDKIIASLNQQVAFGINKVSKLQRQIHAKDNEIKNLKEQLSMKRSQWEMEKHNLESTMKTYVSKLNAETSRALTAEVYFLQCRRDFGLLHLEQTEKECLNQLARVTHMAASNLESLQLKAAVDSWNAIVADVRNKIAFLRTQYNEQINKVKQGFALSTLPPVQLPPPPPSPEILMQQFLGRPLVKESFFRPILTVPQMPAVCPGVVSATGQPRAPLMTGIAWALPAPVGDAVPPSAGLRSDPSIMNWERITDRLKTAFPQQTRKELTDFLRKLKDAYGKSLSELTFDEIVCKISQFIDPKKSQSQGKSVSNVNCVSPSHSPSQPDAAQPPKPAWRPLTSQGPATWEGASNPDEEEEEEEPCVICHENLSPENLSVLPCAHKFHAQCIRPWLMQQGTCPTCRLHVLLPEEFPGHPSRQLPKI
B5: Vesicle transport through interaction with t-SNAREs homolog 1B (Homo sapiens), Q9UEU0 (parent)
chain: MASSAASSEHFEKLHEIFRGLHEDLQGVPERLLGTAGTEEKKKLIRDFDEKQQEANETLAEMEEELRYAPLSFRNPMMSKLRNYRKDLAKLHREVRSTPLTATPGGRGDMKYGIYAVENEHMNRLQSQRAMLLQGTESLNRATQSIERSHRIATETDQIGSEIIEELGEQRDQLERTKSRLVNTSENLSKSRKILRSMSRKVTTNKLLLSIIILLELAILGGLVYYKFFRSH
partner: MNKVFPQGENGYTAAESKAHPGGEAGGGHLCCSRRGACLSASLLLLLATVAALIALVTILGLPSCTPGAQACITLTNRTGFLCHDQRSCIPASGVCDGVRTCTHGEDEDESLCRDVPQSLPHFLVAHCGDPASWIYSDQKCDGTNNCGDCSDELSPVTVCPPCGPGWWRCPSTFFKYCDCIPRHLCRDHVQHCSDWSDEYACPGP
B6: Inactive peptidyl-prolyl cis-trans isomerase FKBP6 (Homo sapiens), O75344 (parent)
chain: MGGSALNQGVLEGDDAPGQSLYERLSQRMLDISGDRGVLKDVIREGAGDLVAPDASVLVKYSGYLEHMDRPFDSNYFRKTPRLMKLGEDITLWGMELGLLSMRRGELARFLFKPNYAYGTLGCPPLIPPNTTVLFEIELLDFLDCAESDKFCALSAEQQDQFPLQKVLKVAATEREFGNYLFRQNRFYDAKVRYKRALLLLRRRSAPPEEQHLVEAAKLPVLLNLSFTYLKLDRPTIALCYGEQALIIDQKNAKALFRCGQACLLLTEYQKARDFLVRAQKEQPFNHDINNELKKLASCYRDYVDKEKEMWHRMFAPCGDGSTAGES
partner: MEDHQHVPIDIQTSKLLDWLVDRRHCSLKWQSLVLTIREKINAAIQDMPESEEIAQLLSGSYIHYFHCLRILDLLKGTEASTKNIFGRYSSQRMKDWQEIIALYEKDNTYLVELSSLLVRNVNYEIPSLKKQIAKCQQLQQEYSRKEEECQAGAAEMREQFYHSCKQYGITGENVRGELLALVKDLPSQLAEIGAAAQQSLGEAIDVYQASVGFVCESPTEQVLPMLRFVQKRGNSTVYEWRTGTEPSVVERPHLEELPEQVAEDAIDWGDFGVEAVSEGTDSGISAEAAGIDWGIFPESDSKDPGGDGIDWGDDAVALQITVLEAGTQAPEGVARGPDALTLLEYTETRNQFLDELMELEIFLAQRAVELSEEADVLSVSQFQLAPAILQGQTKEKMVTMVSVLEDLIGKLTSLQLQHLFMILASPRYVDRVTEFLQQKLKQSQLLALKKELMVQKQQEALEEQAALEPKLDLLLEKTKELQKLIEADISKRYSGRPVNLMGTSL

Variants of: B1
Details: with creb3_human CREB3, O43889

effect of a mutation on the interaction | Variant
with no effect | C196R

Variants of: B2
Details: with creb3_human CREB3, O43889

effect of a mutation on the interaction | Variant
disrupting interaction strength | R185W

Variants of: B3
Details: with ttc19_human TTC19, Q6DKK2

effect of a mutation on the interaction | Variant
with no effect | G196R
with no effect | R30L
with no effect | M25V
with no effect | P203L

Variants of: B4
Details: with ub2e2_human UBE2E2, Q96LR5
Chain of ub2e2_human UBE2E2, Q96LR5 (Q96LR5 whole entry): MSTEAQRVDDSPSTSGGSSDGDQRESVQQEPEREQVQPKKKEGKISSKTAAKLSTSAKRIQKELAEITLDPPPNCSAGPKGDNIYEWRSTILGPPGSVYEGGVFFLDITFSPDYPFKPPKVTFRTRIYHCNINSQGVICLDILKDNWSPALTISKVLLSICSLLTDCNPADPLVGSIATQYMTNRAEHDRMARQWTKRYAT

effect of a mutation on the interaction | Variant
with no effect | F767L

Variants of: B4
Details: with zch10_human ZCCHC10, Q8TBK6
Chain of zch10_human ZCCHC10, Q8TBK6 (Q8TBK6 whole entry): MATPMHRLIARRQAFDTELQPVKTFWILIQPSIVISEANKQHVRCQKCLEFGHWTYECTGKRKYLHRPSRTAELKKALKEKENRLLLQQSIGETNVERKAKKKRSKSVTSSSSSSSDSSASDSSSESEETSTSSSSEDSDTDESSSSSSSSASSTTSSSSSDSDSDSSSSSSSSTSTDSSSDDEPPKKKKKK

effect of a mutation on the interaction | Variant
with no effect | F767L

Variants of: B5
Details: with lrad1_human LDLRAD1, Q5T700

effect of a mutation on the interaction | Variant
with no effect | R124Q
with no effect | R176H

Variants of: B6
Details: with ck5p3_human CDK5RAP3, Q96JB5

effect of a mutation on the interaction | Variant
with no effect | R175Q
